# Laboratory results: ChEMBL document CHEMBL1143427, “Interactions of ceftobiprole with beta-lactamases from molecular classes A to D” (Antimicrob Agents Chemother, 2007)
# B1: Beta-lactamase SHV-1 (Klebsiella pneumoniae), P0AD64 (protein)
# chain: MRYIRLCIISLLATLPLAVHASPQPLEQIKLSESQLSGRVGMIEMDLASGRTLTAWRADERFPMMSTFKVVLCGAVLARVDAGDEQLERKIHYRQQDLVDYSPVSEKHLADGMTVGELCAAAITMSDNSAANLLLATVGGPAGLTAFLRQIGDNVTRLDRWETELNEALPGDARDTTTPASMAATLRKLLTSQRLSARSQRQLLQWMVDDRVAGPLIRSVLPAGWFIADKTGAGERGARGIVALLGPNNKAERIVVIYLRDTPASMAERNQQIAGIGAALIEHWQR
# B2: Beta-lactamase (Pseudomonas aeruginosa (strain ATCC 15692 / PAO1 / 1C / PRS 101 / LMG12228)), P24735 (protein)
# chain: MRDTRFPCLCGIAASTLLFATTPAIAGEAPADRLKALVDAAVQPVMKANDIPGLAVAISLKGEPHYFSYGLASKEDGRRVTPETLFEIGSVSKTFTATLAGYALTQDKMRLDDRASQHWPALQGSRFDGISLLDLATYTAGGLPLQFPDSVQKDQAQIRDYYRQWQPTYAPGSQRLYSNPSIGLFGYLAARSLGQPFERLMEQQVFPALGLEQTHLDVPEAALAQYAQGYGKDDRPLRVGPGPLDAEGYGVKTSAADLLRFVDANLHPERLDRPWAQALDATHRGYYKVGDMTQGLGWEAYDWPISLKRLQAGNSTPMALQPHRIARLPAPQALEGQRLLNKTGSTNGFGAYVAFVPGRDLGLVILANRNYPNAERVKIAYAILSGLEQQGKVPLKR
# Legend:
# [1] = substrate: CC1(C)S[C@@H]2[C@H](NC(=O)Cc3ccccc3)C(=O)N2[C@H]1C(=O)O; assay: (§1) Ratio of Kcat to Km of Klebsiella pneumoniae SHV1 assessed as drug hydrolysis by spectrophotometry
# [2] = substrate: CO/N=C(\C(=O)N[C@@H]1C(=O)N2C(C(=O)[O-])=C(C[N+]3(C)CCCC3)CS[C@H]12)c1csc(N)n1; assay: as §1
# [3] = substrate: Nc1nc(/C(=N/O)C(=O)N[C@@H]2C(=O)N3C(C(=O)O)=C(/C=C4\CCN([C@@H]5CCNC5)C4=O)CS[C@H]23)ns1; assay: as §1
# [4] = substrate: O=C(Cc1cccs1)N[C@@H]1C(=O)N2C(C(=O)[O-])=C(C[n+]3ccccc3)CS[C@H]12; assay: as §1
# [5] = substrate: CC1(C)S[C@@H]2[C@H](NC(=O)Cc3ccccc3)C(=O)N2[C@H]1C(=O)O; assay: (§2) Activity of Klebsiella pneumoniae SHV1 assessed as drug hydrolysis by spectrophotometry
# [6] = substrate: CO/N=C(\C(=O)N[C@@H]1C(=O)N2C(C(=O)[O-])=C(C[N+]3(C)CCCC3)CS[C@H]12)c1csc(N)n1; assay: as §2
# [7] = substrate: Nc1nc(/C(=N/O)C(=O)N[C@@H]2C(=O)N3C(C(=O)O)=C(/C=C4\CCN([C@@H]5CCNC5)C4=O)CS[C@H]23)ns1; assay: as §2
# [8] = substrate: O=C(Cc1cccs1)N[C@@H]1C(=O)N2C(C(=O)[O-])=C(C[n+]3ccccc3)CS[C@H]12; assay: as §2
# [9] = substrate: CC(C)(O/N=C(\C(=O)N[C@@H]1C(=O)N2C(C(=O)[O-])=C(C[n+]3ccccc3)CS[C@H]12)c1csc(N)n1)C(=O)O; assay: (§3) Activity of Pseudomonas aeruginosa 4352 AmpC assessed as drug hydrolysis by spectrophotometry
# [10] = substrate: CC1(C)S[C@@H]2[C@H](NC(=O)Cc3ccccc3)C(=O)N2[C@H]1C(=O)O; assay: as §3
# [11] = substrate: CO/N=C(\C(=O)N[C@@H]1C(=O)N2C(C(=O)[O-])=C(C[N+]3(C)CCCC3)CS[C@H]12)c1csc(N)n1; assay: as §3
# [12] = substrate: Nc1nc(/C(=N/O)C(=O)N[C@@H]2C(=O)N3C(C(=O)O)=C(/C=C4\CCN([C@@H]5CCNC5)C4=O)CS[C@H]23)ns1; assay: as §3
# [13] = substrate: O=C(Cc1cccs1)N[C@@H]1C(=O)N2C(C(=O)O)=C(/C=C/c3ccc([N+](=O)[O-])cc3[N+](=O)[O-])CS[C@H]12; assay: as §3
# [14] = substrate: O=C(Cc1cccs1)N[C@@H]1C(=O)N2C(C(=O)[O-])=C(C[n+]3ccccc3)CS[C@H]12; assay: as §3
# [15] = substrate: CC(C)(O/N=C(\C(=O)N[C@@H]1C(=O)N2C(C(=O)[O-])=C(C[n+]3ccccc3)CS[C@H]12)c1csc(N)n1)C(=O)O; assay: (§4) Ratio of Kcat to Km of Pseudomonas aeruginosa 4352 AmpC assessed as drug hydrolysis by spectrophotometry
# [16] = substrate: CC1(C)S[C@@H]2[C@H](NC(=O)Cc3ccccc3)C(=O)N2[C@H]1C(=O)O; assay: as §4
# [17] = substrate: CO/N=C(\C(=O)N[C@@H]1C(=O)N2C(C(=O)[O-])=C(C[N+]3(C)CCCC3)CS[C@H]12)c1csc(N)n1; assay: as §4
# [18] = substrate: Nc1nc(/C(=N/O)C(=O)N[C@@H]2C(=O)N3C(C(=O)O)=C(/C=C4\CCN([C@@H]5CCNC5)C4=O)CS[C@H]23)ns1; assay: as §4
# [19] = substrate: O=C(Cc1cccs1)N[C@@H]1C(=O)N2C(C(=O)O)=C(/C=C/c3ccc([N+](=O)[O-])cc3[N+](=O)[O-])CS[C@H]12; assay: as §4
# [20] = substrate: O=C(Cc1cccs1)N[C@@H]1C(=O)N2C(C(=O)[O-])=C(C[n+]3ccccc3)CS[C@H]12; assay: as §4
# [21] = substrate: CC(C)(O/N=C(\C(=O)N[C@@H]1C(=O)N2C(C(=O)[O-])=C(C[n+]3ccccc3)CS[C@H]12)c1csc(N)n1)C(=O)O; assay: (§5) Activity of Pseudomonas aeruginosa 18SH AmpC assessed as drug hydrolysis by spectrophotometry
# [22] = substrate: CC1(C)S[C@@H]2[C@H](NC(=O)Cc3ccccc3)C(=O)N2[C@H]1C(=O)O; assay: as §5
# [23] = substrate: CO/N=C(\C(=O)N[C@@H]1C(=O)N2C(C(=O)[O-])=C(C[N+]3(C)CCCC3)CS[C@H]12)c1csc(N)n1; assay: as §5
# [24] = substrate: Nc1nc(/C(=N/O)C(=O)N[C@@H]2C(=O)N3C(C(=O)O)=C(/C=C4\CCN([C@@H]5CCNC5)C4=O)CS[C@H]23)ns1; assay: as §5
# [25] = substrate: O=C(Cc1cccs1)N[C@@H]1C(=O)N2C(C(=O)[O-])=C(C[n+]3ccccc3)CS[C@H]12; assay: as §5
# [26] = substrate: CC1(C)S[C@@H]2[C@H](NC(=O)Cc3ccccc3)C(=O)N2[C@H]1C(=O)O; assay: (§6) Ratio of Kcat to Km of Pseudomonas aeruginosa 18SH AmpC assessed as drug hydrolysis by spectrophotometry
# [27] = substrate: CO/N=C(\C(=O)N[C@@H]1C(=O)N2C(C(=O)[O-])=C(C[N+]3(C)CCCC3)CS[C@H]12)c1csc(N)n1; assay: as §6
# [28] = substrate: Nc1nc(/C(=N/O)C(=O)N[C@@H]2C(=O)N3C(C(=O)O)=C(/C=C4\CCN([C@@H]5CCNC5)C4=O)CS[C@H]23)ns1; assay: as §6
# [29] = substrate: O=C(Cc1cccs1)N[C@@H]1C(=O)N2C(C(=O)[O-])=C(C[n+]3ccccc3)CS[C@H]12; assay: as §6
# [30] = substrate: CC(C)(O/N=C(\C(=O)N[C@@H]1C(=O)N2C(C(=O)[O-])=C(C[n+]3ccccc3)CS[C@H]12)c1csc(N)n1)C(=O)O; assay: (§7) Activity of Pseudomonas aeruginosa MK-1184 AmpC assessed as drug hydrolysis by spectrophotometry
# [31] = substrate: CC1(C)S[C@@H]2[C@H](NC(=O)Cc3ccccc3)C(=O)N2[C@H]1C(=O)O; assay: as §7
# [32] = substrate: CO/N=C(\C(=O)N[C@@H]1C(=O)N2C(C(=O)[O-])=C(C[N+]3(C)CCCC3)CS[C@H]12)c1csc(N)n1; assay: as §7
# [33] = substrate: Nc1nc(/C(=N/O)C(=O)N[C@@H]2C(=O)N3C(C(=O)O)=C(/C=C4\CCN([C@@H]5CCNC5)C4=O)CS[C@H]23)ns1; assay: as §7
# [34] = substrate: O=C(Cc1cccs1)N[C@@H]1C(=O)N2C(C(=O)[O-])=C(C[n+]3ccccc3)CS[C@H]12; assay: as §7
# [35] = substrate: CC(C)(O/N=C(\C(=O)N[C@@H]1C(=O)N2C(C(=O)[O-])=C(C[n+]3ccccc3)CS[C@H]12)c1csc(N)n1)C(=O)O; assay: (§8) Ratio of Kcat to Km of Pseudomonas aeruginosa MK-1184 AmpC assessed as drug hydrolysis by spectrophotometry
# [36] = substrate: CC1(C)S[C@@H]2[C@H](NC(=O)Cc3ccccc3)C(=O)N2[C@H]1C(=O)O; assay: as §8
# [37] = substrate: CO/N=C(\C(=O)N[C@@H]1C(=O)N2C(C(=O)[O-])=C(C[N+]3(C)CCCC3)CS[C@H]12)c1csc(N)n1; assay: as §8
# [38] = substrate: Nc1nc(/C(=N/O)C(=O)N[C@@H]2C(=O)N3C(C(=O)O)=C(/C=C4\CCN([C@@H]5CCNC5)C4=O)CS[C@H]23)ns1; assay: as §8
# [39] = substrate: O=C(Cc1cccs1)N[C@@H]1C(=O)N2C(C(=O)[O-])=C(C[n+]3ccccc3)CS[C@H]12; assay: as §8
# [40] = substrate: CC(C)(O/N=C(\C(=O)N[C@@H]1C(=O)N2C(C(=O)[O-])=C(C[n+]3ccccc3)CS[C@H]12)c1csc(N)n1)C(=O)O; assay: (§9) Activity of Pseudomonas aeruginosa AmpC assessed as drug hydrolysis by spectrophotometry
# [41] = substrate: CC1(C)S[C@@H]2[C@H](NC(=O)Cc3ccccc3)C(=O)N2[C@H]1C(=O)O; assay: as §9
# [42] = substrate: CO/N=C(\C(=O)N[C@@H]1C(=O)N2C(C(=O)[O-])=C(C[N+]3(C)CCCC3)CS[C@H]12)c1csc(N)n1; assay: as §9
# [43] = substrate: Nc1nc(/C(=N/O)C(=O)N[C@@H]2C(=O)N3C(C(=O)O)=C(/C=C4\CCN([C@@H]5CCNC5)C4=O)CS[C@H]23)ns1; assay: as §9
# [44] = substrate: O=C(Cc1cccs1)N[C@@H]1C(=O)N2C(C(=O)[O-])=C(C[n+]3ccccc3)CS[C@H]12; assay: as §9
# [45] = substrate: CC1(C)S[C@@H]2[C@H](NC(=O)Cc3ccccc3)C(=O)N2[C@H]1C(=O)O; assay: (§10) Ratio of Kcat to Km of Pseudomonas aeruginosa AmpC assessed as drug hydrolysis by spectrophotometry
# [46] = substrate: CO/N=C(\C(=O)N[C@@H]1C(=O)N2C(C(=O)[O-])=C(C[N+]3(C)CCCC3)CS[C@H]12)c1csc(N)n1; assay: as §10
# [47] = substrate: Nc1nc(/C(=N/O)C(=O)N[C@@H]2C(=O)N3C(C(=O)O)=C(/C=C4\CCN([C@@H]5CCNC5)C4=O)CS[C@H]23)ns1; assay: as §10
# [48] = substrate: O=C(Cc1cccs1)N[C@@H]1C(=O)N2C(C(=O)[O-])=C(C[n+]3ccccc3)CS[C@H]12; assay: as §10
protein,measurement,setting,value
B1,kcat/Km,[1],8.1e+07 M⁻¹ s⁻¹
same,kcat/Km,[2],25000 M⁻¹ s⁻¹
same,kcat/Km,[3],230000 M⁻¹ s⁻¹
same,kcat/Km,[4],3.1e+06 M⁻¹ s⁻¹
same,Km,[5],16 µM
same,kcat,[5],1300 s⁻¹
same,Km,[6],81 µM
same,kcat,[6],2.1 s⁻¹
same,Km,[7],130 µM
same,kcat,[7],30 s⁻¹
same,Km,[8],160 µM
same,kcat,[8],500 s⁻¹
B2,Km,[9],8 µM
same,kcat,[9],< 0.01 s⁻¹
same,Km,[10],11 µM
same,kcat,[10],37 s⁻¹
same,Km,[11],370 µM
same,kcat,[11],< 0.012 s⁻¹
same,Km,[12],55 µM
same,kcat,[12],< 0.024 s⁻¹
same,Km,[13],12 µM
same,kcat,[13],68 s⁻¹
same,Km,[14],320 µM
same,kcat,[14],100 s⁻¹
same,kcat/Km,[15],< 1300 M⁻¹ s⁻¹
same,kcat/Km,[16],3.4e+06 M⁻¹ s⁻¹
same,kcat/Km,[17],< 33 M⁻¹ s⁻¹
same,kcat/Km,[18],< 440 M⁻¹ s⁻¹
same,kcat/Km,[19],5.7e+06 M⁻¹ s⁻¹
same,kcat/Km,[20],310000 M⁻¹ s⁻¹
same,Km,[21],20 µM
same,kcat,[21],< 0.1 s⁻¹
same,Km,[22],40 µM
same,kcat,[22],45 s⁻¹
same,Km,[23],210 µM
same,kcat,[23],< 0.1 s⁻¹
same,Km,[24],280 µM
same,kcat,[24],3.6 s⁻¹
same,Km,[25],71 µM
same,kcat,[25],130 s⁻¹
same,kcat/Km,[26],1.1e+06 M⁻¹ s⁻¹
same,kcat/Km,[27],9000 M⁻¹ s⁻¹
same,kcat/Km,[28],13000 M⁻¹ s⁻¹
same,kcat/Km,[29],1.8e+06 M⁻¹ s⁻¹
same,Km,[30],12 µM
same,kcat,[30],0.69 s⁻¹
same,Km,[31],3 µM
same,kcat,[31],20 s⁻¹
same,Km,[32],38 µM
same,kcat,[32],0.33 s⁻¹
same,Km,[33],42 µM
same,kcat,[33],0.45 s⁻¹
same,Km,[34],21 µM
same,kcat,[34],22 s⁻¹
same,kcat/Km,[35],58000 M⁻¹ s⁻¹
same,kcat/Km,[36],6.7e+06 M⁻¹ s⁻¹
same,kcat/Km,[37],8600 M⁻¹ s⁻¹
same,kcat/Km,[38],11000 M⁻¹ s⁻¹
same,kcat/Km,[39],1.1e+06 M⁻¹ s⁻¹
same,kcat,[40],< 0.0095 s⁻¹
same,Km,[41],7.9 µM
same,kcat,[41],86 s⁻¹
same,Km,[42],230 µM
same,kcat,[42],3.1 s⁻¹
same,Km,[43],29 µM
same,kcat,[43],230 s⁻¹
same,Km,[44],200 µM
same,kcat,[44],16 s⁻¹
same,kcat/Km,[45],1.1e+07 M⁻¹ s⁻¹
same,kcat/Km,[46],1300 M⁻¹ s⁻¹
same,kcat/Km,[47],7.9e+06 M⁻¹ s⁻¹
same,kcat/Km,[48],80000 M⁻¹ s⁻¹
